Biological target: GST-endophilin I (recombinant) (UniProt O35179)
Experiment: sequential GST pull-down, 32P autoradiography
Conditions: reference: total dynamin I of the lysate; sites S774,S778

Substance: dynamin I (from UniProt P21575) 32P-labelled phospho-dynamin I of same lysate
- other: phospho/total bound dynamin I, % of AmphI-SH3 control: 91%

— PMC2082060
